This is an account of results in the supplement of paper PMC5998384.

In series [1] the test system is HeLa Kyoto. Briefly: solubility in G1/S (NP-40 vs SDS abundance) (log2 ratio); higher = more soluble. As to conditions: cell cycle stage: G1/S.
The test system of series [2] is HeLa Kyoto. The experiment in a line: solubility change mitosis vs G1/S (difference of NP-40 vs SDS log2 ratios) (log2 ratio difference); higher = more soluble in mitosis.
The test system of series [3] is HeLa Kyoto. Briefly: melting temperature (median over replicates), in situ; higher = more thermally stable.
Series [4] relates to HeLa Kyoto. The experiment in a line: thermal stability score vs G1/S (z-score of summed log2 fold changes over temperatures); higher = more thermally stable than in G1/S.
Setting [5] is: cell cycle stage: early G1 (4.5 h after nocodazole release).
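Wherever melting temperature (median over replicates), in situ is given: HeLa Kyoto cells synchronized by double thymidine or nocodazole block, proteins quantified by TMT10plex mass spectrometry, three independent biological replicates.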
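Wherever solubility change mitosis vs G1/S (difference of NP-40 vs SDS log2 ratios) is given: synchronized HeLa Kyoto cells (double thymidine block for G1/S, nocodazole release for mitosis), protein amounts in NP-40 versus SDS lysates quantified by mass spectrometry, three biological replicates.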
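Wherever solubility in G1/S (NP-40 vs SDS abundance) is given: HeLa Kyoto cells arrested at G1/S by double thymidine block, proteins quantified by TMT10plex mass spectrometry in mild NP-40 versus SDS extracts, three biological replicates.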
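Wherever thermal stability score vs G1/S (z-score of summed log2 fold changes over temperatures) is given: synchronized HeLa Kyoto cells, proteins quantified by TMT10plex mass spectrometry, three biological replicates, mitosis taken 0.5 h after nocodazole release, G1/S directly after double thymidine block.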

As for “MYIKQVIIQGFRSYRDQTIVDPFSSKHNVIVGRNGSGKSNFFYAIQFVLSDEFSHLRPEQRLALLHEGTGPRVISAFVEIIFDNSDNRLPIDKEEVSLRRVIGAKKDQYFLDKKMVTKNDVMNLLESAGFSRSNPYYIVKQGKINQMATAPDSQRLKLLREVAGTRVYDERKEESISLMKETEGKREKINELLKYIEERLHTLEEEKEELAQYQKWDKMRRALEYTIYNQELNETRAKLDELSAKRETSGEKSRQLRDAQQDARDKMEDIERQVRELKTKISAMKEEKEQLSAERQEQIKQRTKLELKAKDLQDELAGNSEQRKRLLKERQKLLEKIEEKQKELAETEPKFNSVKEKEERGIARLAQATQERTDLYAKQGRGSQFTSKEERDKWIKKELKSLDQAINDKKRQIAAIHKDLEDTEANKEKNLEQYNKLDQDLNEVKARVEELDRKYYEVKNKKDELQSERNYLWREENAEQQALAAKREDLEKKQQLLRAATGKAILNGIDSINKVLDHFRRKGINQHVQNGYHGIVMNNFECEPAFYTCVEVTAGNRLFYHIVDSDEVSTKILMEFNKMNLPGEVTFLPLNKLDVRDTAYPETNDAIPMISKLRYNPRFDKAFKHVFGKTLICRSMEVSTQLARAFTMDCITLEGDQVSHRGALTGGYYDTRKSRLELQKDVRKAEEELGELEAKLNENLRRNIERINNEIDQLMNQMQQIETQQRKFKASRDSILSEMKMLKEKRQQSEKTFMPKQRSLQSLEASLHAMESTRESLKAELGTDLLSQLSLEDQKRVDALNDEIRQLQQENRQLLNERIKLEGIITRVETYLNENLRKRLDQVEQELNELRETEGGTVLTATTSELEAINKRVKDTMARSEDLDNSIDKTEAGIKELQKSMERWKNMEKEHMDAINHDTKELEKMTNRQGMLLKKKEECMKKIRELGSLPQEAFEKYQTLSLKQLFRKLEQCNTELKKYSHVNKKALDQFVNFSEQKEKLIKRQEELDRGYKSIMELMNVLELRKYEAIQLTFKQVSKNFSEVFQKLVPGGKATLVMKKGDVEGSQSQDEGEGSGESERGSGSQSSVPSVDQFTGVGIRVSFTGKQGEMREMQQLSGGQKSLVALALIFAIQKCDPAPFYLFDEIDQALDAQHRKAVSDMIMELAVHAQFITTTFRPELLESADKFYGVKFRNKVSHIDVITAEMAKDFVEDDTTHG [SMC3]”, the “solubility in G1/S (log2)” value in the series with HeLa Kyoto [1] was -0.182. Further, the “solubility change mitosis (log2)” value with HeLa Kyoto [2] was -0.0245. Also, the results for the melting temperature in the series on HeLa Kyoto [3] (cell cycle stage: G1/S) and in the series on HeLa Kyoto [3] (cell cycle stage: mitosis) were 52.6 °C and 51.5 °C, respectively. The figures for the thermal stability score with HeLa Kyoto [4] (setting [5]) and in the series with HeLa Kyoto [4] (cell cycle stage: mitosis) were -0.978 and -1.78, respectively.

For the substance MYO9B, in the series with HeLa Kyoto [1], the “solubility in G1/S (log2)” value is -0.141. Moreover, the “solubility change mitosis (log2)” value in the series on HeLa Kyoto [2] amounted to 0.00466. Also, the melting temperature is 50.4 °C with HeLa Kyoto [3] (cell cycle stage: G1/S) and 49.6 °C in the series with HeLa Kyoto [3] (cell cycle stage: mitosis). In addition, the thermal stability score was -0.189 with HeLa Kyoto [4] (setting [5]) and -0.197 in the series on HeLa Kyoto [4] (cell cycle stage: mitosis).

For the substance MYOF, in the series on HeLa Kyoto [1], the “solubility in G1/S (log2)” value was -0.326. Moreover, the “solubility change mitosis (log2)” value in the series with HeLa Kyoto [2] is -0.129. The melting temperature is 53.8 °C in the series with HeLa Kyoto [3] (cell cycle stage: G1/S) and 53.4 °C in the series with HeLa Kyoto [3] (cell cycle stage: mitosis). The thermal stability score was -1.57 with HeLa Kyoto [4] (setting [5]) and -1.2 with HeLa Kyoto [4] (cell cycle stage: mitosis).

For “MYTFVVRDENSSVYAEVSRLLLATGHWKRLRRDNPRFNLMLGERNRLPFGRLGHEPGLVQLVNYYRGADKLCRKASLVKLIKTSPELAESCTWFPESYVIYPTNLKTPVAPAQNGIQPPISNSRTDEREFFLASYNRKKEDGEGNVWIAKSSAGAKGEGILISSEASELLDFIDNQGQVHVIQKYLEHPLLLEPGHRKFDIRSWVLVDHQYNIYLYREGVLRTASEPYHVDNFQDKTCHLTNHCIQKEYSKNYGKYEEGNEMFFKEFNQYLTSALNITLESSILLQIKHIIRNCLLSVEPAISTKHLPYQSFQLFGFDFMVDEELKVWLIEVNGAPACAQKLYAELCQGIVDIAISSVFPPPDVEQPQTQPAAFIKL [TTL]”, in the series with HeLa Kyoto [1], the “solubility in G1/S (log2)” value was 0.146. Further, in the series with HeLa Kyoto [2], the “solubility change mitosis (log2)” value was -0.197. In addition, the melting temperature in the series with HeLa Kyoto [3] (cell cycle stage: G1/S) turned out to be 53.9 °C; in the series with HeLa Kyoto [3] (cell cycle stage: mitosis) it was 53.4 °C. Also, the thermal stability score is 0.614 with HeLa Kyoto [4] (setting [5]) and -0.119 in the series with HeLa Kyoto [4] (cell cycle stage: mitosis).

In the case of NCAPD3, in the series with HeLa Kyoto [1], the “solubility in G1/S (log2)” value was -0.316. Moreover, the “solubility change mitosis (log2)” value in the series with HeLa Kyoto [2] was -0.0894. Also, the values for the melting temperature in the series with HeLa Kyoto [3] (cell cycle stage: G1/S) and with HeLa Kyoto [3] (cell cycle stage: mitosis) were 48.4 °C and 49.8 °C, respectively. In addition, the thermal stability score with HeLa Kyoto [4] (setting [5]) was determined as 0.362; in the series on HeLa Kyoto [4] (cell cycle stage: mitosis), 0.667.

For the substance NFAT5, the “solubility in G1/S (log2)” value in the series on HeLa Kyoto [1] was -0.0162. Besides, in the series on HeLa Kyoto [2], the “solubility change mitosis (log2)” value is -0.176. For the same substance, the melting temperature with HeLa Kyoto [3] (cell cycle stage: G1/S) stood at 50 °C; in the series on HeLa Kyoto [3] (cell cycle stage: mitosis), 50.6 °C. Further, the thermal stability score in the series on HeLa Kyoto [4] (setting [5]) was found to be 0.898; with HeLa Kyoto [4] (cell cycle stage: mitosis), 1.21.
